Data as given in patent US20240293570A1 (priority 2021, published 2024).
Like-named read-outs stand apart in the source and are kept apart here. *1 amine or outer side, *2 acyl side, *3 side chain or, on linkers, in order; H or OH if unused. Where a SMILES comes first, the peptide text is derived from it. [ ]: non-standard residue; d: D form. The star is where a group is joined. ξ: configuration not given here. Exatecan = CC[C@@]1(O)C(=O)OCc2c1cc1n(c2=O)Cc2c-1nc1cc(F)c(C)c3c1c2[C@@H](N*)CC3; Dolaproine = CO[C@@H]([C@@H]1CCCN1)[C@@H](C)C(=O)O; X2 = CO[C@@H]([C@H]1CCCN1[*:1])[C@@H](C)C(=O)[*:2]; ξDil = CC[C@H](C)C([C@@H](CC(=O)[*:2])OC)N(C)[*:1]; Hexanoyl(6-maleimido) = O=C1C=CC(=O)N1CCCCCC(=O)*; Propanoyl(3-maleimido) = O=C1C=CC(=O)N1CCC(=O)*; Dil = CC[C@H](C)[C@H](NC)[C@@H](CC(=O)O)OC; PABC = O=C(OCc1ccc(N[*:1])cc1)[*:2]; NHCH2OCH2CO = O=C(COCN[*:1])[*:2]; X3 = C[C@@H](N*)[C@@H](O)c1ccccc1; NMeV = CN[C@H](C(=O)O)C(C)C

Legend:
[1] = Polymer (high molecular component) content of antibody-drug conjugates by SE-HPLC; assay type: physicochemical; conditions: ADC with Her2 antibody
Procedure: (§1) Polymers (high molecular components) of the antibody-drug conjugates were tested using molecular exclusion high-performance liquid chromatography (SE-HPLC). A Biocore SEC chromatographic column (7.8×300 mm, […]) was used, and the mobile phase was 50 mM phosphate containing 300 mM sodium chloride (pH 6.8), with a flow rate of 0.5 mL/min. Samples of […] and 10 μl were injected. […] The polymer content of an antibody-drug conjugate was calculated using an area normalization method.

[2] = Naked antibody content of antibody-drug conjugates by hydrophobic interaction chromatography (HIC); assay type: physicochemical; conditions: ADC with Her2 antibody
Procedure: The content of naked antibodies in the antibody-drug conjugate was tested using hydrophobic interaction chromatography (HIC). A Biocore HIC-Butyl chromatographic column (4.6×150 mm, 5 μm) was used. The mobile phase A was a 100 mM phosphate aqueous solution containing 2 M ammonium sulfate (pH 7.0), and the mobile phase B was a 100 mM phosphate aqueous solution (pH 7.0): isopropanol=80:20 (V/V). Samples of 50 μg and 10 μl were injected. The mobile phase A at the flow rate of 1 mL/min ran at 100% for 3 minutes. Within 3-25 minutes, the mobile phase B ran from […] to 100%, while the mobile phase B decreased to 0% at 25.1 and ran to 30 minutes. […] The naked antibody content of the antibody-drug conjugate was calculated using an area normalization method based on the retention time of a naked antibody peak located by the antibody of the antibody-drug conjugate.

[3] = assay type: physicochemical; conditions: ADC with Her2 antibody, RP-HPLC-MS
Procedure: (§2) A drug-antibody conjugating ratio (also known as drug-antibody ratio, abbreviated as DAR) of the antibody-drug conjugate was tested using reversed-phase high-performance liquid chromatography-mass chromatography (RP-HPLC-MS). The ADC sample was diluted with 50 mmol/L Tris buffer (pH 8.0) to 1 mg/ml. A fresh dithiothreitol (DTT) stock solution was added to achieve a final DTT concentration of 50 mmol/L. Incubation was performed at 37° C. for 30 minutes. A PLRP-S chromatographic column (1000 Å pores, 2.1×50 mm, 5) μm) was used, and the column temperature was 70° C. The flow rate was 0.25 mL/min. […] of sample was injected; the mobile phase A was an aqueous solution of 0.1% formic acid (V/V) and 0.025% trifluoroacetic acid (V/V), and the mobile phase B was an acetonitrile solution of 0.1% formic acid (V/V) and 0.025% trifluoroacetic acid (V/V); the running time was 0-3 minutes, where 27% of mobile phase B ran for 3 minutes, and the mobile phase B ran from 27% to 49% within 3-25 minutes, from 49% to 95% within 25-26 minutes, at 95% within […], from 95% to 27% within 30-31.5 minutes, and at 27% for 31.5-45 minutes. […] Mass spectrometry drying gas was at a temperature of 350° C. and a flow rate of 7.0 L/min, the pressure of an atomizer was 40 psi, capillary voltage was positive 3000V and negative 3000V, and the mass range was 500-1600 m/z. The molecular weight of each mass spectrometry peak (ranging from 20000 to 70000) was calculated by deconvolution and compared with light and heavy chain molecular weights of un-conjugated antibodies to calculate a drug load at each peak, so as to determine the load of a corresponding ultraviolet peak. Area percentages of heavy and light chain ultraviolet peaks were calculated through integration, and a weighted average DAR of the antibody-drug conjugate was calculated by combining the area percentages with the drug load distribution of each peak.

[4] = Stability (placement) test of ADCs at 40° C. in dark for 14 days, DAR and polymer content; assay type: physicochemical
Procedure: as §1, §2
Stability testing method: The stability of the obtained ADCs was tested for 14 days. The ADCs were placed at 40° C. in dark. Sampling points were days 0, 7, and 14. The polymer content and DAR value of samples at different sampling points were tested according to the method in Experimental Example 1.

Structure (SMILES)	Polymer content (%) [1] [%]	Naked antibody content (%) [2] [%]	DAR [3]	DAR ([4]; Day 0, 40° C. in dark)	Polymer content (%) ([4]; Day 0, 40° C. in dark)	DAR ([4]; Day 7, 40° C. in dark)	Polymer content (%) ([4]; Day 7, 40° C. in dark)	DAR ([4]; Day 14, 40° C. in dark)	Polymer content (%) ([4]; Day 14, 40° C. in dark)
CC[C@H](C)[C@@H]([C@@H](CC(=O)N1CCC[C@H]1[C@H](OC)[C@@H](C)C(=O)N[C@H](C)[C@@H](O)c1ccccc1)OC)N(C)C(=O)[C@@H](NC(=O)[C@H](C(C)C)N(C)C(=O)OCc1ccc(NC(=O)CNC(=O)[C@H](Cc2ccccc2)NC(=O)CNC(=O)CNC(=O)CCCCCN2C(=O)C=CC2=O)cc1)C(C)C [Comparative Example 1, reference compound] ({Hexanoyl(6-maleimido)}-GGFG[PABC][NMeV]V[Dil][Dolaproine]-X3)	38.31	23.50	1.03	–	–	–	–	–	–
C=C1C[C@@H]2CC[C@@]34C[C@H]5OC6C(O[C@H]7CC[C@H](CC(=O)C[C@@H]8[C@@H](OC)[C@@H](C[C@H](O)CNC(=O)CNC(=O)[C@H](Cc9ccccc9)NC(=O)CNC(=O)CNC(=O)CCOCCOCCN(CCOCCOCCC(=O)NCC(=O)NCC(=O)N[C@@H](Cc9ccccc9)C(=O)NCC(=O)NCOCC(=O)N[C@H]9CCc%10c(C)c(F)cc%11nc%12c(c9c%10%11)Cn9c-%12cc%10c(c9=O)COC(=O)[C@]%10(O)CC)C(=O)CCCCCN9C(=O)C=CC9=O)O[C@H]8C[C@H]8O[C@@H](CC[C@@H]1O2)C[C@@H](C)C8=C)O[C@@H]7[C@@H]6O3)[C@H]5O4 [Comparative Example 3, reference compound]	50.73	60.77	0.81	–	–	–	–	–	–
C=C1C[C@@H]2CC[C@@]34C[C@H]5OC6C(C[C@H]7CC[C@H](CC(=O)C[C@@H]8[C@@H](OC)[C@@H](C[C@H](O)CNC(=O)CNC(=O)[C@H](Cc9ccccc9)NC(=O)CNC(=O)CNC(=O)CCC(=O)N9CCOCCN(C(=O)CCN%10C(=O)C=CC%10=O)CCOCC9)O[C@H]8C[C@H]8O[C@@H](CC[C@@H]1O2)C[C@@H](C)C8=C)O[C@@H]7[C@@H]6O3)[C@H]5O4 [Example 26]	0.70	1.26	3.92	3.92	0.70	3.92	0.72	3.96	0.66
CC[C@@]1(O)C(=O)OCc2c1cc1n(c2=O)Cc2c-1nc1cc(F)c(C)c3c1c2[C@@H](NC(=O)COCNC(=O)CNC(=O)[C@H](Cc1ccccc1)NC(=O)CNC(=O)CNC(=O)CCCCCN1C(=O)C=CC1=O)CC3 [Comparative Example 14, reference compound] ({Hexanoyl(6-maleimido)}-GGFG[NHCH2OCH2CO]-Exatecan)	–	–	8.00	–	–	–	–	–	–
C=C1C[C@@H]2CC[C@@]34C[C@H]5OC6C(O[C@H]7CC[C@H](CC(=O)C[C@@H]8[C@@H](OC)[C@@H](C[C@H](O)CNC(=O)CNC(=O)[C@H](Cc9ccccc9)NC(=O)CNC(=O)CNC(=O)CCOCCOCCN(CCOCCOCCC(=O)NCC(=O)NCC(=O)N[C@@H](Cc9ccccc9)C(=O)NCC(=O)NCOCC(=O)N[C@H]9CCc%10c(C)c(F)cc%11nc%12c(c9c%10%11)Cn9c-%12cc%10c(c9=O)COC(=O)[C@]%10(O)CC)C(=O)CN9CCOCCOCCOCCOCCN(C(=O)CCCCCC%10C(=O)C=CC%10=O)CCOCCOCCOCCOCC9)O[C@H]8C[C@H]8O[C@@H](CC[C@@H]1O2)C[C@@H](C)C8=C)O[C@@H]7[C@@H]6O3)[C@H]5O4 [Example 14]	0.59	4.97	3.82	3.82	0.59	3.83	0.63	3.84	0.72
C=C1C[C@@H]2CC[C@@]34C[C@H]5OC6C(O[C@H]7CC[C@H](CC(=O)C[C@@H]8[C@@H](OC)[C@@H](C[C@H](O)CNC(=O)CNC(=O)[C@H](Cc9ccccc9)NC(=O)CNC(=O)CNC(=O)CCN9C(=O)C=CC9=O)O[C@H]8C[C@H]8O[C@@H](CC[C@@H]1O2)C[C@@H](C)C8=C)O[C@@H]7[C@@H]6O3)[C@H]5O4 [Comparative Example 12, reference compound]	13.18	7.00	2.67	–	–	–	–	–	–
C=C1C[C@@H]2CC[C@@]34C[C@H]5OC6C(O[C@H]7CC[C@H](CC(=O)C[C@@H]8[C@@H](OC)[C@@H](CC(O)CNC(=O)CNC(=O)[C@H](Cc9ccccc9)NC(=O)CNC(=O)CNC(=O)CCOCCOCCC(CCOCCOCCC(=O)NCC(=O)NCC(=O)N[C@@H](Cc9ccccc9)C(=O)NCC(=O)NCOCC(=O)N[C@H]9CCc%10c(C)c(F)cc%11nc%12c(c9c%10%11)Cn9c-%12cc%10c(c9=O)COC(=O)[C@]%10(O)CC)C9CCC(NC(=O)CCOCCOCCOCCOCCN%10C(=O)C=CC%10=O)CC9)O[C@H]8C[C@H]8O[C@@H](CC[C@@H]1O2)C[C@@H](C)C8=C)O[C@@H]7[C@@H]6O3)[C@H]5O4 (stereo partly shown) [Comparative Example 7, reference compound]	60.31	53.82	0.86	–	–	–	–	–	–
CCc1c2c(nc3ccc(O)cc13)-c1cc3c(c(=O)n1C2)COC(=O)[C@@]3(CC)OC(=O)N(C)CCN(C)C(=O)COCNC(=O)CNC(=O)[C@H](Cc1ccccc1)NC(=O)CNC(=O)CNC(=O)CCN1C(=O)C=CC1=O [Comparative Example 6, reference compound]	13.74	9.06	2.76	–	–	–	–	–	–
CC[C@H](C)C([C@@H](CC(=O)N1CCC[C@@H]1[C@H](OC)[C@@H](C)C(=O)N[C@H](C)[C@@H](O)c1ccccc1)OC)N(C)C(=O)[C@@H](NC(=O)[C@H](C(C)C)N(C)C(=O)OCc1ccc(NC(=O)CNC(=O)[C@H](Cc2ccccc2)NC(=O)CNC(=O)CNC(=O)CCN2C(=O)C=CC2=O)cc1)C(C)C (stereo partly shown) [Comparative Example 8, reference compound] ({Propanoyl(3-maleimido)}-GGFG[PABC][NMeV]V[ξDil][X2]-X3)	12.37	10.15	2.57	–	–	–	–	–	–
C=C1C[C@@H]2CC[C@@]34C[C@H]5OC6C(O[C@H]7CC[C@H](CC(=O)C[C@@H]8[C@@H](OC)[C@@H](C[C@H](O)CNC(=O)CNC(=O)[C@H](Cc9ccccc9)NC(=O)CNC(=O)CNC(=O)CCOCCOCCN(CCOCCOCCC(=O)NCC(=O)NCC(=O)N[C@@H](Cc9ccccc9)C(=O)NCC(=O)NCOCC(=O)N[C@H]9CCc%10c(C)c(F)cc%11nc%12c(c9c%10%11)Cn9c-%12cc%10c(c9=O)COC(=O)[C@]%10(O)CC)C9CCC(NC(=O)CCCCCN%10C(=O)C=CC%10=O)CC9)O[C@H]8C[C@H]8O[C@@H](CC[C@@H]1O2)C[C@@H](C)C8=C)O[C@@H]7[C@@H]6O3)[C@H]5O4 (stereo partly shown) [Comparative Example 9, reference compound]	70.65	57.78	0.91	–	–	–	–	–	–
C=C1C[C@@H]2CC[C@@]34C[C@H]5OC6C(O[C@H]7CC[C@H](CC(=O)C[C@@H]8[C@@H](OC)[C@@H](C[C@H](O)CNC(=O)CNC(=O)[C@H](Cc9ccccc9)NC(=O)CNC(=O)CNC(=O)CCOCCOCCN(CCOCCOCCC(=O)NCC(=O)NCC(=O)N[C@@H](Cc9ccccc9)C(=O)NCC(=O)NCOCC(=O)N[C@H]9CCc%10c(C)c(F)cc%11nc%12c(c9c%10%11)Cn9c-%12cc%10c(c9=O)COC(=O)[C@]%10(O)CC)C9CCC(C(=O)CCOCCOCCN%10C(=O)C=CC%10=O)CC9)O[C@H]8C[C@H]8O[C@@H](CC[C@@H]1O2)C[C@@H](C)C8=C)O[C@@H]7[C@@H]6O3)[C@H]5O4 (stereo partly shown) [Comparative Example 13, reference compound]	78.50	60.37	1.01	–	–	–	–	–	–
